Earlier results as cited in PMC8588233.
Like-named read-outs stand apart in the source and are kept apart here. Each block holds one substance with its values, some of them ahead of it.

Key:
[1] = biological target: HER2 (Homo sapiens) (UniProt P04626)
[2] = biological target: HER2 (Homo sapiens) (UniProt P04626); remark: listed apart in the source
[3] = biological target: HER2 (Homo sapiens) (UniProt P04626); remark: listed apart in the source

Kd [1]: 395 nM
Substance: AHNP

Kd [2]: 300 nM
Substance: AHNP (111In-DTPA-peptide-PEG)

Kd [3]: 295 nM
Substance: KCCYSL peptide
